Experiment in all cases: fluorescence polarisation; 25 °C; unlabeled Rb^P titrated against 1.5 nM TMR-E2F1^TD or 7.5 nM TMR-E7^LxCxE; 25 mM Tris pH 8.0, 200 mM NaCl, 1 mM DTT, 0.1% Tween-20; 2 min incubation; quadratic fit; apparent Kd for the variants, Kd for WT
Details in all cases: both partners purified
In general terms: In fluorescence polarisation assays a small probe gives low polarisation when free and higher when bound to something large.

One test deals with T1, Rb^P R556Q (human, UniProt P06400 380-788, R556Q).
T1 construct: also called variant 30
T1 sequence (looked up): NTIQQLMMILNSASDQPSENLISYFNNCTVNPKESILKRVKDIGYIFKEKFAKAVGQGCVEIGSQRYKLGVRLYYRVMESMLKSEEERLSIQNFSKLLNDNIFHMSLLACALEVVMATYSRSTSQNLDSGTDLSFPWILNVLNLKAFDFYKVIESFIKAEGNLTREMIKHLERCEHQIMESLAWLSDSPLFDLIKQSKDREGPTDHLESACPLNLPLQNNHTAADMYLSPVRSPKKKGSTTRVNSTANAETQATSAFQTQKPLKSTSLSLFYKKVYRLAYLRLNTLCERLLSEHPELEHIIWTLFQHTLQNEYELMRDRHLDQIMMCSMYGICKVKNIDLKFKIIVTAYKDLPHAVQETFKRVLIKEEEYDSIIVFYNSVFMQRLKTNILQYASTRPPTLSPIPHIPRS

A further test addresses T2, Rb^P R451H (human, UniProt P06400 380-788, R451H).
T2 construct: also called variant 6
T2 sequence (looked up): T1 sequence (looked up) with R72H, Q177R

Another test addresses T3, Rb^P M704V (human, UniProt P06400 380-788, M704V).
T3 construct: also called variant 66
T3 sequence (looked up): T1 sequence (looked up) with Q177R, M325V

In the next test the target is T4, Rb^P K462E (human, UniProt P06400 380-788, K462E).
T4 construct: also called variant 8
T4 sequence (looked up): T1 sequence (looked up) with K83E, Q177R

For the next test, the target named is T5, Rb^P S474I (human, UniProt P06400 380-788, S474I).
T5 construct: also called variant 11
T5 sequence (looked up): T1 sequence (looked up) with S95I, Q177R

Numbering of substitutions follows the chain as printed. Numbers in names are those of the source. No end group written: not given here. TMR = tetramethyl rhodamine dye

B1: TMR-E2F1^TD, peptide of the E2F1 transactivation domain (peptide)
peptide: {TMR}-GEGIRDLFDCDFGDLTPLD
notes: also called E2F^TD; source: synthetic peptide, bought: GenScript
In the case of B1, the Kd amounted to 22 nM with Rb^P R556Q; 29 nM with Rb^P R451H; 41 nM with Rb^P M704V; 27 nM with Rb^P K462E; 364 nM with Rb^P S474I.

B2: TMR-E7^LxCxE, LxCxE peptide of the E7 oncoprotein from HPV (peptide)
peptide: DLYCYEQLN
modifications: also: TMR label, position not given here
notes: source: synthetic peptide, bought: GenScript
B2: the Kd with Rb^P R556Q amounted to 5 nM; in the test with Rb^P R451H, 9 nM; with Rb^P M704V it was 18 nM; with Rb^P K462E it was 11 nM; with Rb^P S474I, 7 nM.

The values are drawn from PMC11931385, “Structural and functional analysis of cancer-associated missense variants in the retinoblastoma protein pocket domain” (The Journal of Biological Chemistry, 2025).
